We go through 15 variants from the RNAGym collection of RNA variant scans (doi:10.1093/molbev/msab373).

To fix the notation:
B1: Azoarcus group I ribozyme (parent)
chain: GUGCCUUGCGCCGGGAAACCACGCAAGGGAUGGUGUCAAAUUCGGCGAAACCUAAGCGCCCGCCCGGGCGUAUGGCAACGCCGAGCCAAGCUUCGGCGCCUGCGCCGAUGAAGGUGUAGAGACUAGACGGCACCCACCUAAGGCAAACGCUAUGGUGAAGGCAUAGUCCAGGGAGUGGCGAAAGUCACACAAACCGG

Variants of B1 are the subject of this data set. In words: reverse-splicing fitness (ratio to wild type); higher = more active; in vitro selection; Mg2+ level not given. A digest of the protocol: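 An in vitro group I ribozyme library with randomized positions was T7-transcribed and gel-purified. In triplicate, 10 pmol RNA in EPPS pH 7.5 was reacted with 50 pmoles of a 30-nt RNA substrate for 1 h at 37 °C across several added MgCl2 levels (1–48 mM), then stopped with EDTA. Products were reverse transcribed from a substrate-complementary primer, PCR-amplified and sequenced (HiSeq 4000). Fitness is a variant's read proportion after selection over that before, normalised to wild type.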
For the variant GUGCCUUGCGCCGGGAAACCACGCAAGGGAUGGUGUCAAAUUCGGCGAAACCUAAGCGCCCGCCCGGGCGUAUGGCAACGCAGAGCCAAGCUUCGGCGCCUGCGCCGAUGAAGGUGUAGAGACUAGACGGCACCCACCUAAGGCGAACGCUAUGGUGAAGGCAUAGUCCAGGGAGAGGCGAAAGUCACACAAACCGG [C82A A145G U176A], the reverse-splicing fitness amounted to 0.387.
Under GUGCCUUGCGCCGGGAAACCACGCAAGGGAUGGUGUCAAAUUCGGCGAAACCUAAGCGCCCGCCCGGGCGUAUGGCAACGCAGAGCCAAGCUUCGGCGCCUGCGCCGAUGAAGGUGUAGAGACUAGACGGCACCCACCUAAGGCGAACGCUAUGGUGAAGGCAUAGUCCAGGGAGCGGCGAAAGUCACACAAACCGG [C82A A145G U176C] stands 0.488.
Under GUGCCUUGCGCCGGGAAACCACGCAAGGGAUGGUGUCAAAUUCGGCGAAACCUAAGCGCCCGCCCGGGCGUAUGGCAACGCAGAGCCAAGCUUCGGCGCCUGCGCCGAUGAAGGUGUAGAGACUAGACGGCACCCACCUAAGGCGAACGCUAUGGUGAAGGCAUAGUCCAGGGAGGGGCGAAAGUCACACAAACCGG [C82A A145G U176G] stands 0.113; under GUGCCUUGCGCCGGGAAACCACGCAAGGGAUGGUGUCAAAUUCGGCGAAACCUAAGCGCCCGCCCGGGCGUAUGGCAACGCAGAGCCAAGCUUCGGCGCCUGCGCCGAUGAAGGUGUAGAGACUAGACGGCACCCACCUAAGGCGAACGCUAUGGUGAAGGCAUAGUCGAGGGAGCGGCGAAAGUCACACAAACCGG [C82A A145G C169G U176C], 0.0324.
As to GUGCCUUGCGCCGGGAAACCACGCAAGGGAUGGUGUCAAAUUCGGCGAAACCUAAGCGCCCGCCCGGGCGUAUGGCAACGCAGAGCCAAGCUUCGGCGCCUGCGCCGAUGAAGGUGUAGAGACUAGACGGCACCCACCUAAGGCGAACGCUAUGGUGAAGGCAUAGUCGAGGGAGGGGCGAAAGUCACACAAACCGG [C82A A145G C169G U176G], the reverse-splicing fitness is 0.00481.
With GUGCCUUGCGCCGGGAAACCACGCAAGGGAUGGUGUCAAAUUCGGCGAAACCUAAGCGCCCGCCCGGGCGUAUGGCAACGCAGAGCCAAGCUUCGGCGCCUGCGCCGAUGAAGGUGUAGAGACUAGACGGCACCCACCUAAGGCGAACGCUAUGGUGAAGGCAUAGUCGAGGGAGAGGCGAAAGUCACACAAACCGG [C82A A145G C169G U176A] the figure was 0.0218.
As to GUGCCUUGCGCCGGGAAACCACGCAAGGGAUGGUGUCAAAUUCGGCGAAACCUAAGCGCCCGCCCGGGCGUAUGGCAACGCAGAGCCAAGCUUCGGCGCCUGCGCCGAUGAAGGUGUAGAGACUAGACGGCACCCACCUAAGGCGAACGCUAUGGUGAAGGCAUAGUCAAGGGAGAGGCGAAAGUCACACAAACCGG [C82A A145G C169A U176A], the reverse-splicing fitness is 0.0185.
Under GUGCCUUGCGCCGGGAAACCACGCAAGGGAUGGUGUCAAAUUCGGCGAAACCUAAGCGCCCGCCCGGGCGUAUGGCAACGCAGAGCCAAGCUUCGGCGCCUGCGCCGAUGAAGGUGUAGAGACUAGACGGCACCCACCUAAGGCGAACGCUAUGGUGAAGGCAUAGUCAAGGGAGGGGCGAAAGUCACACAAACCGG [C82A A145G C169A U176G] stands 0.00573; under GUGCCUUGCGCCGGGAAACCACGCAAGGGAUGGUGUCAAAUUCGGCGAAACCUAAGCGCCCGCCCGGGCGUAUGGCAACGCAGAGCCAAGCUUCGGCGCCUGCGCCGAUGAAGGUGUAGAGACUAGACGGCACCCACCUAAGGCGAACGCUAUGGUGAAGGCAUAGUCAAGGGAGCGGCGAAAGUCACACAAACCGG [C82A A145G C169A U176C], 0.0322; under GUGCCUUGCGCCGGGAAACCACGCAAGGGAUGGUGUCAAAUUCGGCGAAACCUAAGCGCCCGCCCGGGCGUAUGGCAACGCAGAGCCAAGCUUCGGCGCCUGCGCCGAUGAAGGUGUAGAGACUAGACGGCACCCACCUAAGGCGAACGCUAUGGUGAAGGCAUAGUCGAGGGAGUGGCGAAAGUCACACAAACCGG [C82A A145G C169G], 0.0111.
Under GUGCCUUGCGCCGGGAAACCACGCAAGGGAUGGUGUCAAAUUCGGCGAAACCUAAGCGCCCGCCCGGGCGUAUGGCAACGCAGAGCCAAGCUUCGGCGCCUGCGCCGAUGAAGGUGUAGAGACUAGACGGCACCCACCUAAGGCGAACGCUAUGGUGAAGGCAUAGUCAAGGGAGUGGCGAAAGUCACACAAACCGG [C82A A145G C169A] stands 0.0112; under GUGCCUUGCGCCGGGAAACCACGCAAGGGAUGGUGUCAAAUUCGGCGAAACCUAAGCGCCCGCCCGGGCGUAUGGCAACGCAGAGCCAAGCUUCGGCGCCUGCGCCGAUGAAGGUGUAGAGACUAGACGGCACCCACCUAAGGCGAACGCUAUGGUGAAGGCAUAGUCUAGGGAGUGGCGAAAGUCACACAAACCGG [C82A A145G C169U], 0.0161; under GUGCCUUGCGCCGGGAAACCACGCAAGGGAUGGUGUCAAAUUCGGCGAAACCUAAGCGCCCGCCCGGGCGUAUGGCAACGCAGAGCCAAGCUUCGGCGCCUGCGCCGAUGAAGGUGUAGAGACUAGACGGCACCCACCUAAGGCGAACGUUAUGGUGAAGGCAUAGUCCAGGGAGCGGCGAAAGUCACACAAACCGG [C82A A145G C150U U176C], 0.363.
Under GUGCCUUGCGCCGGGAAACCACGCAAGGGAUGGUGUCAAAUUCGGCGAAACCUAAGCGCCCGCCCGGGCGUAUGGCAACGCAGAGCCAAGCUUCGGCGCCUGCGCCGAUGAAGGUGUAGAGACUAGACGGCACCCACCUAAGGCGAACGUUAUGGUGAAGGCAUAGUCCAGGGAGGGGCGAAAGUCACACAAACCGG [C82A A145G C150U U176G] stands 0.0838; under GUGCCUUGCGCCGGGAAACCACGCAAGGGAUGGUGUCAAAUUCGGCGAAACCUAAGCGCCCGCCCGGGCGUAUGGCAACGCAGAGCCAAGCUUCGGCGCCUGCGCCGAUGAAGGUGUAGAGACUAGACGGCACCCACCUAAGGCGAACGUUAUGGUGAAGGCAUAGUCCAGGGAGAGGCGAAAGUCACACAAACCGG [C82A A145G C150U U176A], 0.287.
